The source of these data is publication PMC9874840.

The target in this assay is human cyclophilin A (human) (UniProt P62937). Put plainly: SPR. A general note: In SPR one partner is held on a chip, and binding of the other changes the refractive index at the surface.
Sequence of human cyclophilin A (human) (P62937 whole entry): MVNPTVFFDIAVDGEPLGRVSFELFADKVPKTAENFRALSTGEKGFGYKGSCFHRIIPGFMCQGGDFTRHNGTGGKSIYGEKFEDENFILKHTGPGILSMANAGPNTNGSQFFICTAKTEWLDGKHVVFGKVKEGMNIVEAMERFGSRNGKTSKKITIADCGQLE

Regarding “SARS-CoV-2 RBD, Deltacron variant (AY.4/BA.1) (from UniProt P0DTC2) (domain or fragment)”, the Kd – broadly, a measure of binding affinity in units of concentration – was 18.6 nM.

Substance “SARS-CoV-2 RBD, Omicron variant (BA.1, B.1.1.529) (from UniProt P0DTC2) (domain or fragment)” returned a dissociation constant Kd of 26.4 nM. This Kd and that of the substance before are within 1.5-fold of each other.
